B1: mask peptide P1 (peptide)
peptide: EVAPGKRWFYNHVKQVPHLV
notes: Selected by phage display (Screen 1, X15/X19 library)
B2: mask peptide P2 (peptide)
peptide: HEEVHMRPNKLSLTWAYTGPQLR
notes: as for B1
B3: mask peptide M3 (peptide)
peptide: CTMPPSPRSKVIC
notes: Selected by phage display (Screen 2, XnCXnCXn library)

These binders were tested against T1, anti-PTK7 antibody Ab181 (assay: phage display selection against Ab181, X15/X19 library).
T1 construct: also called unmasked antibody
B1: binds. B2: binds.

Each binder was assayed against T1, anti-PTK7 antibody Ab181 (assay: phage display selection against Ab181, XnCXnCXn library).
CTMPVHTYSQWLC (Selected by phage display (Screen 2)) [mask peptide M12]: binds. B3: binds. CTMPSHAVASFLC (Selected by phage display (Screen 2)) [mask peptide M11]: binds. CYIGLRMVPCFHM (Selected by phage display (Screen 2)) [mask peptide M10]: binds. WCTIPSSMSIRLC (Selected by phage display (Screen 2)) [mask peptide M8]: binds. CTFPNTTMQRTFC (Selected by phage display (Screen 2)) [mask peptide M4]: binds. CTYPPRFHMHWLC (Selected by phage display (Screen 2)) [mask peptide M13]: binds. CTHVAQWAIKAFC (Selected by phage display (Screen 2)) [mask peptide M14]: binds. CTYPSWVAYIRFC (Selected by phage display (Screen 2)) [mask peptide M5]: binds. CHIGKRPVPCLWI (Selected by phage display (Screen 2)) [mask peptide M9]: binds. VCTYPPAHRTRFC (Selected by phage display (Screen 2)) [mask peptide M6]: binds. CTMPYHIHSIGLC (Selected by phage display (Screen 2)) [mask peptide M7]: binds.

Reference: patent US20230181750A1 (CRISPR THERAPEUTICS, published 2023)
